Test [1] has as its target T1, Histone H4 (X. laevis), in the nucleosome core particle (X. laevis, UniProt P62799 1-103).
T1 construct: histone H4, X. laevis; Stood in the crystal as part of the nucleosome m12; source: bacterial expression vector
As to the kind of experiment: crystal structure; Orc1 BAH L79I mixed with nucleosome 3:1, complex purified by gel filtration; sitting drop at 4 °C, 6 mM Na-cacodylate pH 6.0, 0.4 mM spermine-HCl, 2 mM MgCl2, 1.75% PEG 400; 3.3 Å. Conditions: both partners purified. For orientation: SEC sorts molecules by how far they enter the pores of the column.

Test [2] concerns the target Histone H2B (X. laevis), in the nucleosome core particle (X. laevis, UniProt P02281 1-126). The description is as above. Conditions: both partners purified.

B1: Orc1 BAH L79I mutant (domain or fragment)
chain: MAKTLKDLQGWEIITTDEQGNIIDGGQKRLRRRGAKTEHYLKRSSDGIKLGRGDSVVMHNEAAGTYSVYMIQELRLNTINNVVELWALTYLRWFEVNPLAHYRQFNPDANILNRPLNYYNKLFSETANKNELYLTAELAELQLFNFIRVANVMDGSKWEVLKGNVDPERDFTVRYICEPTGEKFVDINIEDVKAYIKKVEPREAQEYLKDLTLP
modifications: N-alpha-acetyl on A2 (acetylated N-terminus visible in the structure)
notes: Orc1 BAH domain, S. cerevisiae, amino acids 1-214, L79I; Used for the crystal structure and in EMSA; source: SF9 insect cells (baculovirus), purified (Ni-NTA, SP-Sepharose FF, Superdex-200)
As for B1, the binding result in test [1] and in test [2] was “binds” in each case.

The values are drawn from PMC6602975, “Structure and function of the Orc1 BAH-nucleosome complex” (Nature Communications, 2019).
